This is an account of results in patent publication US20150147342A1 (published 2015).

The target of one experiment is T1, Human Ang-2FD-hFc (human).
T1 construct: Order of the pieces follows the name (Ang-2FD, then hFc); also called Dimeric Human Ang-2FD; human Ang-2FD protein conjugated to human IgG
Nature of the experiment: ELISA, 16.67 nM antibody + 2 nM human Ang-2FD-hFc, on coated hTie-2-mFc (competitor). On the procedure:
(§1) Tie-2 is a natural receptor for Ang-2. Anti-Ang-2 antibodies were tested for their ability to block Ang-2 binding to human Tie-2 (hTie-2). hTie-2-mFc (a chimeric construct consisting of human Tie-2 conjugated to mouse IgG; SEQ ID NO:525) was coated onto 96-well plates at a concentration of 2 μg/ml and incubated overnight followed by washing four times in wash buffer (PBS with 0.05% Tween-20). The plate was then blocked with PBS (Irvine Scientific, Santa Ana, Calif.) containing 0.5% BSA (Sigma-Aldrich Corp., St. Louis, Mo.) for one hour at room temperature. In a separate plate, purified anti-Ang-2 antibodies, at a starting concentration of 50 nM, were serially diluted by a factor of three across the plate. […] The antibody/Ang-2FD-Fc mixture was then added to the plate containing hTie-2-mFc and incubated for one hour at room temperature.
(In general: ELISA stands for enzyme-linked immunosorbent assay.)

A further experiment deals with T2, Mouse Ang-2FD-hFc (mouse (Mus musculus)).
T2 construct: Order of the pieces follows the name; also called Dimeric Mouse Ang-2FD
Description: ELISA, 16.67 nM antibody + 8 nM mouse Ang-2FD-hFc, on coated hTie-2-mFc (competitor). The procedure:
as §1

For experiment [1], the target named is T3, Dimeric fibrinogen-like domain of human Ang-2 conjugated to human IgG1 (human).
T3 construct: also called Dimeric Human Ang-2FD; Human Ang-2FD-hFc
Nature of the experiment: SPR, antibody captured, room temp. The procedure: (§2) Antibody was captured on a goat anti-mouse IgG polyclonal antibody surface, a goat anti-human κ polyclonal antibody (Southern Biotech, Birmingham, Ala.) surface or a goat anti-human IgG polyclonal antibody (Jackson Immuno Research Lab, West Grove, Pa.) surface created through direct amine coupling to a BIACORE™ CM5 sensor chip to form a captured antibody surface. […] Antigen-antibody binding and dissociation were monitored in real time at room temperature. Kinetic analysis was performed to calculate KD and half-life of antigen/antibody complex dissociation.

In experiment [2] the target is T4, Dimeric fibrinogen-like domain of mouse (Mus musculus) Ang-2 conjugated to human IgG1 (mouse (Mus musculus)).
T4 construct: also called Dimeric Mouse Ang-2FD; Mouse Ang-2FD-hFc
Nature of the experiment: SPR, antibody captured, room temp. The procedure:
as §2
A general note: Surface plasmon resonance follows binding to a sensor surface in real time, without labels.

The target in experiment [3] is T5, Dimeric fibrinogen-like domain of monkey (Macca fascicularis) Ang-2 conjugated to human IgG1 (monkey (Macca fascicularis)).
T5 construct: also called Dimeric Monkey Ang-2FD; Monkey Ang-2FD-hFc
Description: SPR, antibody captured, room temp. On the procedure: as §2

The target in experiment [4] is T3, Dimeric fibrinogen-like domain of human …. Description: blocking ELISA, 16.67 nM antibody, coated hTie-2-mFc. On the procedure: as §1
Experiment [5] deals with T4, Dimeric fibrinogen-like domain of mouse …. The experiment is described as above. The procedure: as §1
Experiment [6] has as its target T5, Dimeric fibrinogen-like domain of …. The experiment is described as above. The procedure:
as §1

B1: H1H693P (antibody, V domains shown)
VH: EVQLVESGGGLVQPGESLRLSCAASGFTFSSYAMSWVRQGPGKGLEWVSSISGSGGTTYYADSVEGRFTISRDNSKNTLYLHMNSLRAEDTAVYYCAKDFLDYSTYLAFDLWGQGTMVTVSS
VL: DIQMTQSPSSVSASVGDRVTITCRASQGISSWLAWYQQKPGKAPKLLIYAASSLQSGVPSRFSGSGSGTDFTLTISSLQPEDFATYYCQQANSFPRTFGQGTKVEIK
notes: Fully human antibody, human IgG1
In the case of B1, the entries for the “Percent Blocking of Ang-2FD Binding to Tie-2” value (“Percent Blocking” for short) in the experiment with Human Ang-2FD-hFc and with Mouse Ang-2FD-hFc were 73.9% and 63.6%, respectively.

B2: H1H707P (antibody, V domains shown)
VH: QVQLVESGGGVVQPGRSLRLSCAASGFTFSSYGMHWVRQAPDKGLEWVAVKWDDGSNKYYADSVKGRFTISRDNSKNTLYLQMNSLRAEDTAVYYCAREGPYDFYSGYGAFDIWGQGTMVTVSS
VL: not shown
notes: as for B1
On to B2, for which the “Percent Blocking” value is 95.1% with Human Ang-2FD-hFc and 93.8% with Mouse Ang-2FD-hFc.

B3: H1H704P (antibody, V domains shown)
VH: QVQLVESGGDVVQPGRSLRLSCAASGFTFSSYGMHWVRQAPGKGLEWVAIIWYDGSNKYYADSVKGRFTISRDNSKNTLYLQMNSLRVEDTAVYSCARDFSISSRHFDYWGQGTLVTVSS
VL: DIQMTQSPSSLSASVGDRVTITCRASQAINNYLAWFQQKPGKAPKSLIYATSNLQSGVPSQFSGSGSGTDYTLTISSLQPEDFATYYCQQYYIYPITFGQGTRLEIK
notes: as for B1
For B3, the “Percent Blocking” value in the experiment with Human Ang-2FD-hFc was 97%; with Mouse Ang-2FD-hFc it was 41.8%.

B4: H2M749N (antibody, V domains shown)
VH: QVQLVESGGGVVQPGRSLRLSCAASGFTFSSYGMHWVRQAPGKGLEWVAVIWYDEFNKYYADSVKGRFTISRDNSKNTLYLQMNSLRAEDTAVYYCARERESGYSYGFDYWGQGTLVTVSS
VL: EIVMTQSPATLSVSPGERATLSCRAGQSVSSNLAWYQQKPGQAPRLLIYGASTRATGIPARFSGSGSGTEFTLTISSLQSEDFAVYYCQQYNNWWTFGQGTKVEIK
notes: Hybridoma-derived chimeric antibody, mouse constant domains; also called H1M749N; H1M749
By Kd is commonly meant the equilibrium constant for the complex coming apart. As to B4, the Kd in experiment [1] worked out at 0.165 nM; in experiment [2], 0.529 nM; in experiment [3] it was 1.5 nM. The “T1/2” value in experiment [1] was 0.715 h; in experiment [2] it was 0.425 h; in experiment [3] it was 0.682 h. The “Percent Blocking” value in experiment [4] was determined as 99.5%; in experiment [5] it was 97.3%; in experiment [6] it was 97.4%.

B5: H1H695P (antibody, V domains shown)
VH: QVQLVESGGGVVQPGRSLRLSCAASGFTFSSYGMHWVRQAPGKGLEWVAVMWYDETNKYYADSVKGRFTISRDNSKNTLYLQMNSLRAEDTAVYYCARYSGYEDYYHGMDVWGQGTTVTVS
VL: EIVMTQSPATPSVSPGERATLSCRASQSISSNLAWYQQKPGQAPRLLIYGASTRATGIPARFSGSGSGTEFTLTISSLQSEDFAVYYCQHYNNWITFGQGTRLEIK
notes: as for B1
As for B5, the entries for the “Percent Blocking” value with Human Ang-2FD-hFc and in the experiment with Mouse Ang-2FD-hFc were 98.4% and 97.6%, respectively.

B6: H2M744N (antibody, V domains shown)
VH: QVQLVQSGVEVKKPGASVKVSCKTSGYTFSNNGFSWVRQAPGQGLEWLGWISGYNGNTNYAQKFQGRVTMTTDTSTSTAYMELRTLRSDDTAVYYCARDQDYSNFHWLDPWGQGTLVTVAS
VL: DIQMTQSPSSVSASVGDRVIITCRASQGLSSWLAWYQQKPGTAPKLLIHSASSLQTGVPSRFSGSGSGTEFALTINSLQPEDFGTYYCQQANSFPLTFGGGTRVEIK
Consider B6, for which the Kd in experiment [1] was found to be 0.0989 nM; in experiment [2], 0.143 nM; in experiment [3], 0.5 nM. In addition, the “T1/2” value in experiment [1] is 1.82 h; in experiment [2], 3.72 h; in experiment [3] it was 4.69 h. Besides, the “Percent Blocking” value is 99.5% in experiment [4], 98.4% in experiment [5] and 95.5% in experiment [6].
